In publication PMC10397247:
One block for each binder: values may come before it.

Legend:
[1] = target: T1, 4H797-bN; test: two-hybrid library CCNG1;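 further: natural log of median RNA to DNA barcode read ratio; higher means stronger binding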
T1 chain: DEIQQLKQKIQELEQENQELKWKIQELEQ

[2] = target: T2, 4H855-bN; test: two-hybrid library CCNG1;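 further: natural log of median RNA to DNA barcode read ratio; higher means stronger binding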
T2 chain: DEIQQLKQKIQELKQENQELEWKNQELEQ

[3] = target: T3, 4H883-bN; test: two-hybrid library CCNG1;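 further: natural log of median RNA to DNA barcode read ratio; higher means stronger binding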
T3 chain: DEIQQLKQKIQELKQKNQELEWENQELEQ

[4] = target: T4, 4H908-bN; test: two-hybrid library CCNG1;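 further: natural log of median RNA to DNA barcode read ratio; higher means stronger binding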
T4 chain: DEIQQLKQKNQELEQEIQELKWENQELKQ

[5] = target: T5, 4H918-bN; test: two-hybrid library CCNG1
T5 chain: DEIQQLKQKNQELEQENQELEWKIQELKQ

[6] = target: T6, 4H953-bN; test: two-hybrid library CCNG1
T6 chain: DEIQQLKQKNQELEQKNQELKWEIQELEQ

[7] = target: T7, 4H967-bN; test: two-hybrid library CCNG1
T7 chain: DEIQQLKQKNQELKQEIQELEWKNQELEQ

[8] = target: T8, 4H968-bN; test: two-hybrid library CCNG1
T8 chain: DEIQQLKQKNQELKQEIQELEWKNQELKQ

[9] = target: T9, P12bH1; test: two-hybrid library CCNG1
T9 chain: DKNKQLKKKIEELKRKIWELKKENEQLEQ

[10] = target: T10, P6bH1; test: two-hybrid library CCNG1
T10 chain: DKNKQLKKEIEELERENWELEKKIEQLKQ

[11] = target: T11, 4H1478-AA; test: two-hybrid library CCmax
T11 chain: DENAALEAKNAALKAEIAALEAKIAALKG

[12] = target: T12, 4H1579-AA; test: two-hybrid library CCmax; details: mean of both orientations
T12 chain: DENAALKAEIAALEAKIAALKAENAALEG

[13] = target: T13, 4H1597-AA; test: two-hybrid library CCmax; details: mean of both orientations
T13 chain: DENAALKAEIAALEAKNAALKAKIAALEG

[14] = target: T14, 4H1626-AA; test: two-hybrid library CCmax; details: mean of both orientations
T14 chain: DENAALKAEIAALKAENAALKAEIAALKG

[15] = target: T15, 4H171-AA; test: two-hybrid library CCmax; details: mean of both orientations
T15 chain: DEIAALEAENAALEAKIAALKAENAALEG

[16] = target: T16, 4H174-AA; test: two-hybrid library CCmax; details: mean of both orientations
T16 chain: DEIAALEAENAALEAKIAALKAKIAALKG

[17] = target: T17, 4H1842-AA; test: two-hybrid library CCmax; details: mean of both orientations
T17 chain: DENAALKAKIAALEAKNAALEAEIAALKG

[18] = target: T18, 4H1864-AA; test: two-hybrid library CCmax; details: mean of both orientations
T18 chain: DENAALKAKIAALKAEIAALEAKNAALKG

[19] = target: T19, 4H1877-AA; test: two-hybrid library CCmax; details: mean of both orientations
T19 chain: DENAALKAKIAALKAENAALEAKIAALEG

[20] = target: T20, 4H2109-AA; test: two-hybrid library CCmax; details: mean of both orientations
T20 chain: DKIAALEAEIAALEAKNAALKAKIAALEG

[21] = target: T21, 4H2162-AA; test: two-hybrid library CCmax; details: mean of both orientations
T21 chain: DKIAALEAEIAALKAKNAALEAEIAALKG

[22] = target: T22, 4H2253-AA; test: two-hybrid library CCmax; details: mean of both orientations
T22 chain: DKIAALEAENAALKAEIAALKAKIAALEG

[23] = target: T23, 4H2274-AA; test: two-hybrid library CCmax; details: mean of both orientations
T23 chain: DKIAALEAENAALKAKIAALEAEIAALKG

[24] = target: T24, 4H2330-AA; test: two-hybrid library CCmax; details: mean of both orientations
T24 chain: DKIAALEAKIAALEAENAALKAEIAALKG

[25] = target: T25, 4H2389-AA; test: two-hybrid library CCmax; details: mean of both orientations
T25 chain: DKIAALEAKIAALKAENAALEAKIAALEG

[26] = target: T26, 4H2438-AA; test: two-hybrid library CCmax; details: mean of both orientations
T26 chain: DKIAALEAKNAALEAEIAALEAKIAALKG

[27] = target: T27, 4H2473-AA; test: two-hybrid library CCmax; details: mean of both orientations
T27 chain: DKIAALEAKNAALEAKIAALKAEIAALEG

[28] = target: T28, 4H2649-AA; test: two-hybrid library CCmax; details: mean of both orientations
T28 chain: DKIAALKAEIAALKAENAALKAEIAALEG

[29] = target: T29, 4H2698-AA; test: two-hybrid library CCmax; details: mean of both orientations
T29 chain: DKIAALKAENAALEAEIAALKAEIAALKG

[30] = target: T30, 4H2725-AA; test: two-hybrid library CCmax; details: mean of both orientations
T30 chain: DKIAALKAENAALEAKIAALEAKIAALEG

[31] = target: T31, 4H2865-AA; test: two-hybrid library CCmax; details: mean of both orientations
T31 chain: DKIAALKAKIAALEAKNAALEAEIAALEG

[32] = target: T32, 4H3009-AA; test: two-hybrid library CCmax; details: mean of both orientations
T32 chain: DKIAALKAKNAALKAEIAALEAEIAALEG

[33] = target: T33, 4H3016-AA; test: two-hybrid library CCmax; details: mean of both orientations
T33 chain: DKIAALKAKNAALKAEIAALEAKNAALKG

[34] = target: T34, 4H310-AA; test: two-hybrid library CCmax; details: mean of both orientations
T34 chain: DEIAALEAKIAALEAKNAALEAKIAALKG

[35] = target: T35, 4H3120-AA; test: two-hybrid library CCmax; details: mean of both orientations
T35 chain: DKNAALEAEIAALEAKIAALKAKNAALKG

[36] = target: T36, 4H3130-AA; test: two-hybrid library CCmax; details: mean of both orientations
T36 chain: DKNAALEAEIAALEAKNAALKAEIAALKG

[37] = target: T37, 4H3165-AA; test: two-hybrid library CCmax; details: mean of both orientations
T37 chain: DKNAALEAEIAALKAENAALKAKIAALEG

[38] = target: T38, 4H3381-AA; test: two-hybrid library CCmax; details: mean of both orientations
T38 chain: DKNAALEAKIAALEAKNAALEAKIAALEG

[39] = target: T39, 4H3395-AA; test: two-hybrid library CCmax; details: mean of both orientations
T39 chain: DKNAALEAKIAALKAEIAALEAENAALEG

[40] = target: T40, 4H3410-AA; test: two-hybrid library CCmax; details: mean of both orientations
T40 chain: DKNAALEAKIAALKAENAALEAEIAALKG

[41] = target: T41, 4H3590-AA; test: two-hybrid library CCmax; details: mean of both orientations
T41 chain: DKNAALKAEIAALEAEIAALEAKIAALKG

[42] = target: T42, 4H3697-AA; test: two-hybrid library CCmax; details: mean of both orientations
T42 chain: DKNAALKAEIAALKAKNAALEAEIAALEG

[43] = target: T43, 4H3753-AA; test: two-hybrid library CCmax; details: mean of both orientations
T43 chain: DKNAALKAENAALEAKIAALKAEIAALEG

[44] = target: T44, 4H3865-AA; test: two-hybrid library CCmax; details: mean of both orientations
T44 chain: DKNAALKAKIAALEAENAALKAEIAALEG

[45] = target: T45, 4H458-AA; test: two-hybrid library CCmax; details: mean of both orientations
T45 chain: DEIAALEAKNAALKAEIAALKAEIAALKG

[46] = target: T46, 4H485-AA; test: two-hybrid library CCmax; details: mean of both orientations
T46 chain: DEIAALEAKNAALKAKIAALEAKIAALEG

[47] = target: T47, 4H536-AA; test: two-hybrid library CCmax; details: mean of both orientations
T47 chain: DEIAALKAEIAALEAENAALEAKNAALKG

[48] = target: T48, 4H570-AA; test: two-hybrid library CCmax; details: mean of both orientations
T48 chain: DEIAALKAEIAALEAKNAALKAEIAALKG

[49] = target: T49, 4H629-AA; test: two-hybrid library CCmax; details: mean of both orientations
T49 chain: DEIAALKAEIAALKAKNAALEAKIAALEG

[50] = target: T50, 4H710-AA; test: two-hybrid library CCmax
T50 chain: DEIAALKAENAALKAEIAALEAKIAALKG

[51] = target: T51, 4H745-AA; test: two-hybrid library CCmax; details: mean of both orientations
T51 chain: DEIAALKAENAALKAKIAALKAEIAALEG

[52] = target: T52, 4H797-AA; test: two-hybrid library CCmax; details: mean of both orientations
T52 chain: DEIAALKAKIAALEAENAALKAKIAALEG

[53] = target: T53, 4H850-AA; test: two-hybrid library CCmax; details: mean of both orientations
T53 chain: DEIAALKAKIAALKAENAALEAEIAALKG

[54] = target: T54, 4H891-AA; test: two-hybrid library CCmax; details: mean of both orientations
T54 chain: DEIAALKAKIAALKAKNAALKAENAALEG

[55] = target: T55, 4H909-AA; test: two-hybrid library CCmax; details: mean of both orientations
T55 chain: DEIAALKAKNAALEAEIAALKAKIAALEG

[56] = target: T56, 4H930-AA; test: two-hybrid library CCmax; details: mean of both orientations
T56 chain: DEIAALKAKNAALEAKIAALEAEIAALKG

[57] = target: T57, 4H94-AA; test: two-hybrid library CCmax; details: mean of both orientations
T57 chain: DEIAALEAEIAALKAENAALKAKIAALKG

interaction score [1]: 0.569 | interaction score [2]: 0.668 | interaction score [3]: -1.53 | interaction score [4]: -0.753 | interaction score [5]: 1.02 | interaction score [6]: -0.455 | interaction score [7]: -0.535 | interaction score [8]: -1.06 | interaction score [9]: -0.66 | interaction score [10]: 0.0343
Binder: DEIQQLKQKIQELEQENQELKWKIQELEQ [4H797-bN]

interaction score [11]: 0.0991 | interaction score [12]: -0.103 | interaction score [13]: -0.494 | interaction score [14]: -1.52 | interaction score [15]: 0.9 | interaction score [16]: 1.4 | interaction score [17]: -1.06 | interaction score [18]: 1.68 | interaction score [19]: -0.558 | interaction score [20]: -0.882 | interaction score [21]: -1.13 | interaction score [22]: -0.889 | interaction score [23]: -0.761 | interaction score [24]: -1.56 | interaction score [25]: 0.0289 | interaction score [26]: -0.717 | interaction score [27]: 2.04 | interaction score [28]: -1.48 | interaction score [29]: 1.64 | interaction score [30]: 1.78 | interaction score [31]: -1.39 | interaction score [32]: 0.472 | interaction score [33]: -1.29 | interaction score [34]: -0.927 | interaction score [35]: -0.624 | interaction score [36]: -0.211 | interaction score [37]: -1.68 | interaction score [38]: -1.47 | interaction score [39]: 1.1 | interaction score [40]: -1 | interaction score [41]: 0.946 | interaction score [42]: -1.54 | interaction score [43]: 2.25 | interaction score [44]: -1.31 | interaction score [45]: -0.241 | interaction score [46]: -0.796 | interaction score [47]: -1.16 | interaction score [48]: -1.51 | interaction score [49]: -1.23 | interaction score [50]: -0.15 | interaction score [51]: 2.14 | interaction score [52]: -1.28 | interaction score [53]: 0.0104 | interaction score [54]: -1.45 | interaction score [55]: -0.497 | interaction score [56]: -0.754 | interaction score [57]: -1.45
Binder: DENAALEAKNAALKAEIAALEAKIAALKG [4H1478-AA]
